± gives the uncertainty stated by the source.
B1: Pyruvate dehydrogenase protein X component, mitochondrial, residues 181 to 227; numbered along this chain, O00330 (parent)
chain: RFRLSPAARNILEKHSLDASQGTATGPRGIFTKEDALKLVQLKQTGK

Variants of: B1
Test: abundance fitness (aPCA) (normalised: wild type 0, dead -1); higher = more abundant; growth selection in yeast, the domain comes from the species named
Settings: Homo sapiens

Abundance fitness of substitutions, site by site:
P27: L -0.599 ± 0.069, R -0.363 ± 0.046, Q -0.221 ± 0.056
K33: A -0.113 ± 0.057, F -0.623 ± 0.073, T -0.04 ± 0.084, N -0.462 ± 0.18, E 0.079 ± 0.044, H -0.039 ± 0.15, L -0.379 ± 0.062, Q 0.036 ± 0.098
G29: H -0.773 ± 0.15, P -0.569 ± 0.071, D -0.101 ± 0.11
F2: V -0.486 ± 0.056, I -0.059 ± 0.1, R -0.65 ± 0.041, L -0.46 ± 0.046, A -0.536 ± 0.063, N 0.091 ± 0.073, T -0.323 ± 0.079, W -1.25 ± 0.11, K -0.232 ± 0.073
I11: P -0.383 ± 0.15, A -0.356 ± 0.057, F -0.424 ± 0.14, D -0.175 ± 0.091, M -0.52 ± 0.06
N10: K -0.014 ± 0.079, T 0.002 ± 0.048, C -0.13 ± 0.055, R 0.024 ± 0.047, E 0.439 ± 0.074, P -0.163 ± 0.069, F 0.106 ± 0.088, W -0.272 ± 0.048
A19: S -0.242 ± 0.066, C -0.186 ± 0.074, K -0.602 ± 0.058, H -0.323 ± 0.12, G -0.136 ± 0.054, W -0.362 ± 0.044, I -0.295 ± 0.16, Y -0.236 ± 0.15, R -0.362 ± 0.058, D -0.355 ± 0.12, L -0.412 ± 0.053
K14: R -0.293 ± 0.053, A 0.008 ± 0.064, Y -0.3 ± 0.1, P -0.055 ± 0.081, H -0.164 ± 0.079, N -0.05 ± 0.073, G -0.142 ± 0.044
G22: N -0.648 ± 0.078, P -0.64 ± 0.071, M -0.369 ± 0.051, F -0.679 ± 0.053, H -0.524 ± 0.11, R -0.723 ± 0.07, L -0.475 ± 0.047
R3: P -0.188 ± 0.073, K -0.16 ± 0.078, Q -0.374 ± 0.084, V 0.04 ± 0.045, D -0.594 ± 0.13, G -0.336 ± 0.047, N 0.31 ± 0.1, H 0.04 ± 0.11, Y 0.109 ± 0.077, F 0.144 ± 0.06
Q41: D -0.085 ± 0.1, C -0.855 ± 0.19, Y -0.639 ± 0.17, W -0.395 ± 0.056
E13: G -0.387 ± 0.054, C -0.441 ± 0.052, P -0.564 ± 0.11, N 0.1 ± 0.11, I -0.224 ± 0.096, F -0.612 ± 0.082
R9: A -0.135 ± 0.063, W -0.668 ± 0.089, M -0.251 ± 0.074, Y -0.495 ± 0.076, E -0.21 ± 0.085, S -0.272 ± 0.053
R1: M -0.489 ± 0.17, C -0.516 ± 0.27, E -0.206 ± 0.14, Q -0.362 ± 0.32, V -0.685 ± 0.054, S 0.145 ± 0.095, I -0.317 ± 0.36
G46: S -0.05 ± 0.06, D -0.343 ± 0.15, H 0.38 ± 0.14, C 0.022 ± 0.093, I -0.689 ± 0.2, L -0.268 ± 0.071, Q 0.249 ± 0.14, R -0.105 ± 0.05
G26: Q -0.483 ± 0.077, M -0.435 ± 0.069, A -0.603 ± 0.056, P -0.55 ± 0.076, H -0.46 ± 0.043, K -0.571 ± 0.055, V -0.489 ± 0.043
Q21: R -0.44 ± 0.058, P -0.453 ± 0.06, E 0.041 ± 0.068, C -0.167 ± 0.059, F -0.493 ± 0.085, V -0.31 ± 0.049, W -0.223 ± 0.056
L12: W -0.765 ± 0.11, K -0.481 ± 0.11, I -0.121 ± 0.062, R -0.422 ± 0.051, A -0.317 ± 0.048, G -0.332 ± 0.048, H -0.504 ± 0.11
K43: C -0.267 ± 0.15, Y -0.193 ± 0.091, Q -0.057 ± 0.05, W -0.608 ± 0.15, A -0.083 ± 0.084, L -0.575 ± 0.059
L42: I -0.291 ± 0.17, G -0.183 ± 0.057, N -0.288 ± 0.24, C 0.013 ± 0.062, A 0.131 ± 0.052, Y -0.058 ± 0.14, V -0.001 ± 0.045, W -0.251 ± 0.068
R28: A -0.119 ± 0.06, P -0.408 ± 0.096, H -0.202 ± 0.11, M -0.071 ± 0.072, C -0.072 ± 0.051, Y -0.03 ± 0.064, N 0.285 ± 0.088
A7: R -0.222 ± 0.047, I -0.263 ± 0.099, N -0.432 ± 0.072, K -0.187 ± 0.046, H -0.605 ± 0.15
T45: W -0.276 ± 0.075, P -0.333 ± 0.11, D 0.07 ± 0.11, K -0.379 ± 0.11, N 0.096 ± 0.12, Q -0.209 ± 0.14
T32: A -0.462 ± 0.087, H -0.389 ± 0.045, I -0.965 ± 0.21, D -0.612 ± 0.17, R -0.698 ± 0.094
S16: Q 0.069 ± 0.085, H -0.026 ± 0.079, Y -0.385 ± 0.066, F -0.416 ± 0.084, E 0.035 ± 0.051, L -0.667 ± 0.047, T -0.109 ± 0.05
